Reference: article PMC7026663 (Nucleic Acids Research, 2019)

Columns and labels:
H3/H4 tetramer = H3/H4 tetramer (UniProt P84233;P62799); experiment: ITC
H2A/H2B dimer = H2A/H2B dimer (UniProt P06897;P02281); experiment: ITC

B1: AtFKBP53 NTD (residues 1–112) (domain or fragment)
chain: MGFWGLEVKPGKPQAYNPKNEQGKIHVTQATLGTGLSKEKSVIQCSIGDKAPIALCSLLPNKIECCPLNLEFDDDDEPVEFTVTGDRSIHLSGFLEYYQDDEDDYEHDEDDS
With B1 the “stoichiometry N” value (H3/H4 tetramer) was 1 and the “stoichiometry N” value (H2A/H2B dimer) was 1.
